Measurements: US20110306057A1 (Dana-Farber, published 2011)

B5: PP2A regulatory subunit B55α (other, UniProt P63151 2-447, looked up)
chain: AGAGGGNDIQWCFSQVKGAVDDDVAEADIISTVEFNHSGELLATGDKGGRVVIFQQEQENKIQSHSRGEYNVYSTFQSHEPEFDYLKSLEIEEKINKIRWLPQKNAAQFLLSTNDKTIKLWKISERDKRPEGYNLKEEDGRYRDPTTVTTLRVPVFRPMDLMVEASPRRIFANAHTYHINSISINSDYETYLSADDLRINLWHLEITDRSFNIVDIKPANMEELTEVITAAEFHPNSCNTFVYSSSKGTIRLCDMRASALCDRHSKLFEEPEDPSNRSFFSEIISSISDVKFSHSGRYMMTRDYLSVKIWDLNMENRPVETYQVHEYLRSKLCSLYENDCIFDKFECCWNGSDSVVMTGSYNNFFRMFDRNTKRDITLEASRENNKPRTVLKPRKVCASGKRKKDEISVDSLDFNKKILHTAWHPKENIIAVATTNNLYIFQDKVN
notes: Endogenous protein found in anti-FLAG immune complexes by immunoblot
B6: cancer-derived FLAG-tagged PP2A Aβ mutant G8R (other, UniProt P30154 1-601, looked up, not shown: small tags and cut ends)
chain: MAGASELRTGPGAAGGDGDDSLYPIAVLIDELRNEDVQLRLNSIKKLSTIALALGVERTRSELLPFLTDTIYDEDEVLLALAEQLGNFTGLVGGPDFAHCLLPPLENLATVEETVVRDKAVESLRQISQEHTPVALEAYFVPLVKRLASGDWFTSRTSACGLFSVCYPRASNAVKAEIRQQFRSLCSDDTPMVRRAAASKLGEFAKVLELDSVKSEIVPLFTSLASDEQDSVRLLAVEACVSIAQLLSQDDLETLVMPTLRQAAEDKSWRVRYMVADRFSELQKAMGPKITLNDLIPAFQNLLKDCEAEVRAAAAHKVKELGENLPIEDRETIIMNQILPYIKELVSDTNQHVKSALASVIMGLSTILGKENTIEHLLPLFLAQLKDECPDVRLNIISNLDCVNEVIGIRQLSQSLLPAIVELAEDAKWRVRLAIIEYMPLLAGQLGVEFFDEKLNSLCMAWLVDHVYAIREAATNNLMKLVQKFGTEWAQNTIVPKVLVMANDPNYLHRMTTLFCINALSEACGQEITTKQMLPIVLKMAGDQVANVRFNVAKSLQKIGPILDTNALQGEVKPVLQKLGQDEDMDVKYFAQEAISVLALA
notes: Overexpressed in HEK TER cells; the shRNA-resistant form carries silent substitutions only; also called G8R Aβ mutant

How the values were obtained:
[1] = target: T1, wild type (WT) FLAG epitope-tagged version of PP2A Aβ (UniProt P30154 1-601); assay: GST pull-down with glutathione-agarose from 293T lysates, immunoblot
T1 construct: also called wtPP2A Aβ; FLAG-tagged Aβ
T1 sequence (P30154 whole entry): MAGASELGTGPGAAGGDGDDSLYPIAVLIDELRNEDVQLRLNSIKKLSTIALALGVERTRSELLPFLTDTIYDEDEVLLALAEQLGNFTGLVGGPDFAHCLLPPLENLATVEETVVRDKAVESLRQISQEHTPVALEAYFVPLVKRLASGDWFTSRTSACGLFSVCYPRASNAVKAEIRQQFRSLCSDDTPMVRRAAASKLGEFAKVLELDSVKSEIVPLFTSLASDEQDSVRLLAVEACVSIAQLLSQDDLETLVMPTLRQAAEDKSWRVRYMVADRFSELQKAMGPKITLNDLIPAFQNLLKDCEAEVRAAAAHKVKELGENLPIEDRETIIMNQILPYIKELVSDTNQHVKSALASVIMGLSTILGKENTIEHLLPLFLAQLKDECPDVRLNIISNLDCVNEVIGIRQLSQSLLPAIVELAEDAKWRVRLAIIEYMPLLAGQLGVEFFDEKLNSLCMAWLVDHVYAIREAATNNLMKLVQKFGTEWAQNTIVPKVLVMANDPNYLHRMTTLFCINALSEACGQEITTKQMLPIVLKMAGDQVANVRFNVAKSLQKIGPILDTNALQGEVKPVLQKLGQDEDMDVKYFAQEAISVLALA

[2] = target: T1, wild type (WT) FLAG epitope-tagged …; assay: anti-FLAG agarose co-IP from 293T cells, immunoblot
[3] = target: T1, wild type (WT) FLAG epitope-tagged …; assay: reciprocal co-IP (anti-HA, anti-FLAG agarose) from 293T cells, immunoblot
[4] = target: T2, PP2A regulatory subunit B56γ (human (endogenous in human HEK TER …, UniProt Q13362 1-524)); assay: anti-FLAG co-IP from HEK TER cells, immunoblot, densitometry
T2 sequence (Q13362 whole entry): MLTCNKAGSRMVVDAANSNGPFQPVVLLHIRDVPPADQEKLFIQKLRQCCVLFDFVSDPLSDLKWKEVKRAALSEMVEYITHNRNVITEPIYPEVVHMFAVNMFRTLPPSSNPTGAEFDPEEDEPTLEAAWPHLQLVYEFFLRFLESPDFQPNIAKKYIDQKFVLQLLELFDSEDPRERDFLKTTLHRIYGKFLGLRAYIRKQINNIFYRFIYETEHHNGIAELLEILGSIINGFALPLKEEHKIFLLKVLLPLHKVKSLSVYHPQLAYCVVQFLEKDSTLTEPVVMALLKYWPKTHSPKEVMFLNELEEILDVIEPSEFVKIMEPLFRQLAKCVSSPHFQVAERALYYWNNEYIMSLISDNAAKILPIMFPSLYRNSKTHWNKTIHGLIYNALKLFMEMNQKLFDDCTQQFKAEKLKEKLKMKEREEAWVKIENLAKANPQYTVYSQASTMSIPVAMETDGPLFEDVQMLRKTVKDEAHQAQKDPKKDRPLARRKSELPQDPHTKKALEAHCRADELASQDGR

[5] = target: T3, PP2A regulatory subunit B56ε (human (endogenous in human HEK TER …, UniProt Q16537 2-467, limits assumed)); assay: anti-FLAG co-IP from HEK TER cells, immunoblot, densitometry; +++ >90%, ++ 50-90%, + <50%
T3 construct: Endogenous protein found in anti-FLAG immune complexes by immunoblot
T3 sequence (Q16537 2-467 limits assumed): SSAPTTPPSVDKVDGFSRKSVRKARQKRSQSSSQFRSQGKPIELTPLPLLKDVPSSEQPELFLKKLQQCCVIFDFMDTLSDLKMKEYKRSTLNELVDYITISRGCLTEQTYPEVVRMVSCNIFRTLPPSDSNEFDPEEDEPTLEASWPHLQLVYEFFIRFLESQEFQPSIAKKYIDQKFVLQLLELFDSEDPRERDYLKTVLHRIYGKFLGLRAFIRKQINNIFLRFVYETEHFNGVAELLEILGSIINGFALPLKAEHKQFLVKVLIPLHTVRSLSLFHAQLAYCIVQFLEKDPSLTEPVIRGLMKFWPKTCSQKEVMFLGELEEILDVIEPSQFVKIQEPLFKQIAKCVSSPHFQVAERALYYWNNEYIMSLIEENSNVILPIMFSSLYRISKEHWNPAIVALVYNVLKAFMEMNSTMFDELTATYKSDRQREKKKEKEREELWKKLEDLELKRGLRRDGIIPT

[6] = target: B5; assay: as above
[7] = target: T4, PP2A regulatory subunit B56α (human (endogenous in human HEK TER …, UniProt Q15172 2-486, limits assumed)); assay: as above
T4 construct: Endogenous protein found in anti-FLAG immune complexes by immunoblot
T4 sequence (Q15172 2-486 limits assumed): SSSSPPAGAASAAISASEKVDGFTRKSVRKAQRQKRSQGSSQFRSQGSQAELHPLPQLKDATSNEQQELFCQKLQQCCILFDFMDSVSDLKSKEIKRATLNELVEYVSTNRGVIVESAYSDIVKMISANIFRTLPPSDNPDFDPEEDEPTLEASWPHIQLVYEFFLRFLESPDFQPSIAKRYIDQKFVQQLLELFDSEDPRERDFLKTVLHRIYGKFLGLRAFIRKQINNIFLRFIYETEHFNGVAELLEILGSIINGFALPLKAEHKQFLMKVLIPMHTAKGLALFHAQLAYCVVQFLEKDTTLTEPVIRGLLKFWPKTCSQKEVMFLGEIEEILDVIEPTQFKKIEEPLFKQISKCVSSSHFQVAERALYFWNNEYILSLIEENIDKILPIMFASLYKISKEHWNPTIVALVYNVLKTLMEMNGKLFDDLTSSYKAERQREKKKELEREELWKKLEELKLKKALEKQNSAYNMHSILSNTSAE

[8] = target: T5, PP2A catalytic subunit Cα (human (endogenous in human HEK TER or …, UniProt P67775 1-309)); assay: as above
T5 construct: Endogenous protein found in anti-FLAG immune complexes by immunoblot or mass spectroscopy; also called PP2A catalytic Cα
T5 sequence (P67775 whole entry): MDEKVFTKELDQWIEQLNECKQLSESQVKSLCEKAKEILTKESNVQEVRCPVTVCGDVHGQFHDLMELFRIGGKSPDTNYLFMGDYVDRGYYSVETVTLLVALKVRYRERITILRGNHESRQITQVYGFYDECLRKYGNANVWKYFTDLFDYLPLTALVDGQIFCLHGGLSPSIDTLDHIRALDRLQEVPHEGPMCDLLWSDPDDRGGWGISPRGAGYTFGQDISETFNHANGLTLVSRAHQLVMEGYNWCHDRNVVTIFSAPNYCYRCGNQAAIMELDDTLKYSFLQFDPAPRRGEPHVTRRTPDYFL

[9] = target: T1, wild type (WT) FLAG epitope-tagged …; assay: anti-FLAG co-IP from HEK TER cells, immunoblot
[10] = target: T6, cancer-derived FLAG-tagged PP2A Aβ mutant ΔE344-E388 (Homo sapiens (Human), UniProt P30154 2-601); assay: anti-FLAG co-IP from HEK TER cells, immunoblot, densitometry
T6 construct: Deletion of exon 9, in-frame deletion of 45 amino acids; Overexpressed in HEK TER cells; also called D344-388

[11] = target: T7, cancer-derived FLAG-tagged PP2A Aβ mutant L101P/V448A (UniProt P30154 1-601); assay: as above
T7 construct: Overexpressed in HEK TER cells

[12] = target: T2, PP2A regulatory subunit B56γ; assay: anti-FLAG co-IP from HEK TER cells, immunoblot, densitometry; +++ >90%, ++ 50-90%, + <50%
[13] = target: T8, cancer-derived FLAG-tagged PP2A Aβ mutant V448A (UniProt P30154 1-601); assay: anti-FLAG (M2) co-IP from HEK TER cells, RalA immunoblot
T8 construct: Overexpressed in HEK TER cells
T8 sequence (P30154 whole entry V448A): as the sequence (P30154 whole entry) above, with V448A counted along it

[14] = target: B6; assay: as above
[15] = target: T9, FLAG-epitope tagged PP2A Aα (UniProt P30153 1-589); assay: anti-FLAG (M2) co-IP from 293T cells, RalA immunoblot
T9 construct: also called wtPP2A Aα; FLAG-tagged Aα
T9 sequence (P30153 whole entry): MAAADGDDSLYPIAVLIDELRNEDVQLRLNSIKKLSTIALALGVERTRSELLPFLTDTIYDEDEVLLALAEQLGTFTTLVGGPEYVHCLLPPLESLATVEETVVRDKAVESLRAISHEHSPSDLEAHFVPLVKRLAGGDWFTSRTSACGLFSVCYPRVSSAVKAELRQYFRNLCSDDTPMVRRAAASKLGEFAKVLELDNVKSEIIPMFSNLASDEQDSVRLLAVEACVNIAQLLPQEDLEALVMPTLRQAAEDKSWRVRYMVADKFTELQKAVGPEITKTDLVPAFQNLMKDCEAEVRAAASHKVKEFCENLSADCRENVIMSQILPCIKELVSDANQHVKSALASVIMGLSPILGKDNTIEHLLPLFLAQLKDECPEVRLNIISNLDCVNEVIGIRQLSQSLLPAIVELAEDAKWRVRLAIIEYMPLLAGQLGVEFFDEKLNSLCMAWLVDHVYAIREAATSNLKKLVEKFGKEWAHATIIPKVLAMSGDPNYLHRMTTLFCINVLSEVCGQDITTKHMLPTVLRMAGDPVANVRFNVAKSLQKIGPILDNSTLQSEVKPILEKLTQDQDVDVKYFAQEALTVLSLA

[16] = target: T1, wild type (WT) FLAG epitope-tagged …; assay: as above

B1: GST-tagged SV40 small t antigen (ST) (other)
chain: MDKVLNREESLQLMDLLGLERSAWGNIPLMRKAYLKKCKEFHPDKGGDEEKMKKMNTLYKKMEDGVKYAHQPDFGGFWDATEVFASSLNPGVDAMYCKQWPECAKKMSANCICLLCLLRMKHENRKLYRKDPLVWVDCYCFDCFRMWFGLDLCEGTLLLWCDIIGQTTYRDLKL
notes: also called GST-tagged ST; SV40 ST; not shown: GST tag
Does B1 bind [1]?
Result: no binding

B2: HA-tagged RalA S11A mutant (enzyme, not shown: small tags and cut ends)
chain: MAANKPKGQNALALHKVIMVGSGGVGKSALTLQFMYDEFVEDYEPTKADSYRKKVVLDGEEVQIDILDTAGQEDYAAIRDNYFRSGEGFLCVFSITEMESFAATADFREQILRVKEDENVPFLLVGNKSDLEDKRQVSVEEAKNRAEQWNVNYVETSAKTRANVDKVFFDLMREIRARKMEDSKEKNGKKKRKSLAKRIRERC
notes: also called S11A RalA mutant
Does B2 bind [2]?
Result: binds

B3: HA-tagged wild-type RalA (enzyme, not shown: small tags and cut ends)
chain: MAANKPKGQNSLALHKVIMVGSGGVGKSALTLQFMYDEFVEDYEPTKADSYRKKVVLDGEEVQIDILDTAGQEDYAAIRDNYFRSGEGFLCVFSITEMESFAATADFREQILRVKEDENVPFLLVGNKSDLEDKRQVSVEEAKNRAEQWNVNYVETSAKTRANVDKVFFDLMREIRARKMEDSKEKNGKKKRKSLAKRIRERC
notes: phosphorylation state not separated; also called HA-tagged RalA; HA-RalA
Does B3 bind [3]?
Result: binds

B4: cancer-derived FLAG-tagged PP2A Aβ mutant V545A (other, UniProt P30154 1-601, looked up, not shown: small tags and cut ends)
chain: MAGASELGTGPGAAGGDGDDSLYPIAVLIDELRNEDVQLRLNSIKKLSTIALALGVERTRSELLPFLTDTIYDEDEVLLALAEQLGNFTGLVGGPDFAHCLLPPLENLATVEETVVRDKAVESLRQISQEHTPVALEAYFVPLVKRLASGDWFTSRTSACGLFSVCYPRASNAVKAEIRQQFRSLCSDDTPMVRRAAASKLGEFAKVLELDSVKSEIVPLFTSLASDEQDSVRLLAVEACVSIAQLLSQDDLETLVMPTLRQAAEDKSWRVRYMVADRFSELQKAMGPKITLNDLIPAFQNLLKDCEAEVRAAAAHKVKELGENLPIEDRETIIMNQILPYIKELVSDTNQHVKSALASVIMGLSTILGKENTIEHLLPLFLAQLKDECPDVRLNIISNLDCVNEVIGIRQLSQSLLPAIVELAEDAKWRVRLAIIEYMPLLAGQLGVEFFDEKLNSLCMAWLVDHVYAIREAATNNLMKLVQKFGTEWAQNTIVPKVLVMANDPNYLHRMTTLFCINALSEACGQEITTKQMLPIVLKMAGDQAANVRFNVAKSLQKIGPILDTNALQGEVKPVLQKLGQDEDMDVKYFAQEAISVLALA
notes: Overexpressed in HEK TER cells
Does B4 bind [4]?
Result: no binding

What about the “binding level (percent, co-immunoprecipitation densitometry)” value [5] of the same binder?
The value was < 50%.

And the “binding level (percent, co-immunoprecipitation densitometry)” value [6]?
The value was > 90%.

What about the “binding level (percent, co-immunoprecipitation densitometry)” value [7] of the same binder?
Its value is < 50%.

What about the “binding level (percent, co-immunoprecipitation densitometry)” value [8] of the same binder?
Its value is < 50%.

Which results are given for B5?
binding result [9]: binds; binding result [10]: no binding; binding result [11]: no binding

B6 was tested. Which “binding level (percent, co-immunoprecipitation densitometry)” value [5] did it give?
The value was > 90%.

What about the “binding level (percent, co-immunoprecipitation densitometry)” value [12] of the same binder?
Its value is < 50%.

What about the “binding level (percent, co-immunoprecipitation densitometry)” value [6] of the same binder?
Its value is > 90%.

And the “binding level (percent, co-immunoprecipitation densitometry)” value [7]?
Its value is > 90%.

And the “binding level (percent, co-immunoprecipitation densitometry)” value [8]?
Its value is 50 to 90%.

B7: cancer-derived FLAG-tagged PP2A Aβ mutant P65S (other, UniProt P30154 1-601, looked up, not shown: small tags and cut ends)
chain: MAGASELGTGPGAAGGDGDDSLYPIAVLIDELRNEDVQLRLNSIKKLSTIALALGVERTRSELLSFLTDTIYDEDEVLLALAEQLGNFTGLVGGPDFAHCLLPPLENLATVEETVVRDKAVESLRQISQEHTPVALEAYFVPLVKRLASGDWFTSRTSACGLFSVCYPRASNAVKAEIRQQFRSLCSDDTPMVRRAAASKLGEFAKVLELDSVKSEIVPLFTSLASDEQDSVRLLAVEACVSIAQLLSQDDLETLVMPTLRQAAEDKSWRVRYMVADRFSELQKAMGPKITLNDLIPAFQNLLKDCEAEVRAAAAHKVKELGENLPIEDRETIIMNQILPYIKELVSDTNQHVKSALASVIMGLSTILGKENTIEHLLPLFLAQLKDECPDVRLNIISNLDCVNEVIGIRQLSQSLLPAIVELAEDAKWRVRLAIIEYMPLLAGQLGVEFFDEKLNSLCMAWLVDHVYAIREAATNNLMKLVQKFGTEWAQNTIVPKVLVMANDPNYLHRMTTLFCINALSEACGQEITTKQMLPIVLKMAGDQVANVRFNVAKSLQKIGPILDTNALQGEVKPVLQKLGQDEDMDVKYFAQEAISVLALA
notes: as for B4
B7 was tested. Which “binding level (percent, co-immunoprecipitation densitometry)” value [5] did it give?
Its value is > 90%.

And the “binding level (percent, co-immunoprecipitation densitometry)” value [12]?
The value was < 50%.

What about the “binding level (percent, co-immunoprecipitation densitometry)” value [6] of the same binder?
Its value is > 90%.

And the “binding level (percent, co-immunoprecipitation densitometry)” value [7]?
The value was < 50%.

What about the “binding level (percent, co-immunoprecipitation densitometry)” value [8] of the same binder?
Its value is 50 to 90%.

B8: endogenous RalA (enzyme)
chain: MAANKPKGQNSLALHKVIMVGSGGVGKSALTLQFMYDEFVEDYEPTKADSYRKKVVLDGEEVQIDILDTAGQEDYAAIRDNYFRSGEGFLCVFSITEMESFAATADFREQILRVKEDENVPFLLVGNKSDLEDKRQVSVEEAKNRAEQWNVNYVETSAKTRANVDKVFFDLMREIRARKMEDSKEKNGKKKRKSLAKRIRERC
notes: Endogenous protein in cell lysates; also called small GTPase RalA
Does B8 bind [13]?
Result: no binding

Does B8 bind [14]?
Result: no binding

Does B8 bind [15]?
Result: no binding

Does B8 bind [16]?
Result: binds
